Test results published in patent US7521540B2, “CYR61 compositions and methods” (Munin Corporation, priority 1996, dated 2009).

What was measured:
macrophages = test: Macrophage binding, antibody inhibition studies; format: cell-based
Excerpt: It is also expected that Cyr61 will promote the migration of macrophages, thus serving a role in attracting and retaining macrophages at the site of a wound. Consequently, Cyr61 is expected to play a role in the inflammatory response of mammals, and modulation of Cyr61 activity is expected to influence the inflammatory response.

Limb mesenchymal cells [1] = test: Chondrogenesis, [35S]-sulfate incorporation in micromass cultures; format: cell-based, mouse
Protocol: Cell proliferation was assessed by the thymidine assay, described above, and by microscopic cell counts. Chondrogenesis was assessed by quantifying the incorporation of [^35S]-sulfate (ICN Biomedicals, Inc.) into sulfated glycosaminoglycans, and by qualitatively determnining the extent of chondrogenesis by cell staining with Alcian Blue. Cultures, described above, were labeled with 2.5 μCi/ml [^35S]-sulfate for 18 hours, washed twice in PBS, fixed with Kahle's fixative (Pepper et al., J. Cell Sci. 109:73-83 [1995]) and stained for 18 hours in 0.5% Alcian Blue, pH 1.0. The extent of chondrogenesis is correlated with the intensity of Alcian Blue staining. San Antonio et at., Dev. Biol. 115:313-324 (1986).
Chondrogenic differentiation was quantitated by incorporation of […] (ICN) into sulfated glycosaminoglycans and assessed qualitatively by Alcian Blue staining. Cultures were radiolabeled with 2.5 μCi/ml [^35S]-sulfate for 18 hr, fixed with Kahle's fixative and stained with 0.5% Alcian Blue, pH 1.0 (Lev et al., 1964). The extent of chondrogenesis is correlated with the intensity of Alcian Blue staining (San Antonio et al., 1986). [^35S]-Sulfate incorporation in the fixed cell layer was quanititated by liquid scintillation counting.
As shown above in Example 11, anti-Cyr61 antibodies can neutlralize both the cell adhesion and DNA-synthesis enhancement activities of Cyr61. Anti-Cyr61 antibodies were added to the mesenchymal cell culture media or mixed the cell suspension prior to plating. […] These observations were correlated with decreased Alcian Blue staining.

[2] = Sensitivity of Cyr61 cell-attachment activity to DTT, heat, acid and protease; format: physicochemical
Protocol: Because murine Cyr61 contains 38 cysteines in the 355 amino acid secreted portion, the contribution of disulfide bond formation to Cyr61 tertiary structure was investigated. […] However, Cyr61 was inactivated by heating at 75° C. for 5 minutes, by incubation in 100 mM HCl, or upon extensive digestion with chymotrypsin. […] In addition, Cyr61 is neither phosphorylated nor glycosylated.
(§1) Another embodiment of the invention is directed to the use of Cyr61 to mediate cellular attachment to the extracellular matrix. Induction of cellular adhesion was investigated using murine Cyr61, fibronectin, and bovine serum albumin (BSA). Immunological 96-well plates (Falcon brand) were coated with 50 μl of 0.1% BSA in PBS at 4° C. in the presence of 0-30 μg/ml concentrations of murine Cyr61 or fibronectin. After two hours exposure to the coating solution, non-diluted immune or pre-immune antisera (30 μl/well), or affinity-purified anti-Cyr61 antibodies were added. For some wells, the coating mixture was adjusted to 10 mM DTT or 100 mM HCl. After 16 hours incubation, the coating solution was removed and the well surface was blocked with 1% BSA in phosphate-buffered saline (PBS) for 1 hour at room temperature. HUVE cells were plated in Ham's complete F12K medium [GIBCO-BRL, Inc.; Ham, Proc. Natl. Acacd. Sci. (USA) 53:786 (1965)] at 5×10^3-10^4 cells/well. Cycloheximide was added to 100 μg/ml immediately before plating and monensin was added to 1 μM 14 hours before plating. After a 2-hour incubation at 37° C., the wells were washed with PBS and attached cells were fixed and stained with methylene blue. The attachment efficiency was determined by quantitative dye extraction and measurement of the extract absorbance at 650 nm. Oliver et al., J. Cell. Sci. 92:513-518 (1989).

[3] = tested on: Bovine aortic smooth muscle cells (BASM cells); test: Smooth muscle cell adhesion assay; format: cell-based
Protocol: Cell adhesion assays were also performed on smooth muscle cells. Bovine aortic smooth muscle cells (BASM cells) were subjected to the cell adhesion assay described above in the context of assaying fibroblasts. […] To identify particular integrin, receptors mediating the Cyr61 induction of BASM cell adhesion, antibody studies were conducted using anti-integrin antibodies recognizing specific integrins. […] Thus, integrin α6β1 mediates Cyr61-induced adhesion of smooth muscle cells. It is expected that Cyr61 polypeptides that include the heparan binding domain IV will induce adhesion of any mammalian smooth muscle cell.

Limb mesenchymal cells [4] = test: Limb bud mesenchymal cell attachment; format: cell-based, mouse; conditions: within 1 hour of plating
Protocol: Cyr61, fibronectin (Gibco), or tenascin (Gibco) were diluted in 0.1% protease-free bovine serum albumin (BSA) in PBS with 0.5 mM PMSF, to a final concentrations of 10 or 50 μg/ml. A 10 μl drop/well was placed in a non-tissue culture treated 24-well plate (Corning), and incubated at room temperature for 2 hours. The wells were blocked with 1% BSA in PBS for 1 hour at room temperature, and rinsed with serum-free MEM (Modified Eagle's Medium). Limb mesenchymal cells, suspended at 5×10^5 cell/ml in serum-free MEM, were added at a volume of 400 μl/well, and incubated at 37° C., 5% CO2 for 1 or 3 hours. At each time point, the cell suspension was removed, the wells were rinsed with MEM and the remaining adherent cells were photographed.

HUVE cells = test: HUVE cell attachment to murine Cyr61-coated plates; format: cell-based, human
Protocol: as §1

[5] = tested on: primary human foreskin fibroblasts; test: Cyr61-regulated gene expression (multi-gene blot, Northern); format: cell-based
Protocol: Purified, soluble, recombinant Cyr61 protein was added to cultures of primary human foreskin fibroblasts for 24 hours. From these cells, mRNA was isolated for preparation of probes to hybridize to a multi-gene blot (Clontech Atlas Human Array 1.2 cat no. 7850-1) containing about 650 genes. The levels of expression of these genes in Cyr61-treated cells were compared to that of control cells. […] These findings have been confirmed by Northern blot analysis showing increases or decreases of the mRNAs in question in Cyr61-treated cells. A time course of expression changes has been established. In particular, by 6 hours after its addition, Cyr61 has induced expression of VEGF-A mRNA and the induction is still evident at 12 and 24 hours post-addition. Also at 12 and 24 hours post-addition, Cyr61 has induced expression of VEGF-A polypeptide. With respect to VEGF-C, induction of mRNA is clearly evident 12 hours after addition of Cyr61 and the induction persists at least through 24 hours post-addition. Cyr61 is expected to induce the expression of VEGF-C polypeptide with similar kinetics.

B1: Cyr61: Cysteine-rich ECM signaling protein; murine sequence SEQ ID NO:2, recombinant from Baculovirus-infected Sf9 cells (protein, listed as Mus musculus)
chain: MSSSTFRTLAVAVTLLHLTRLALSTCPAACHCPLEAPKCAPGVGLVRDGCGCCKVCAKQLNEDCSKTQPCDHTKGLECNFGASSTALKGICRAQSEGRPCEYNSRIYQNGESFQPNCKHQCTCIDGAVGCIPLCPQELSLPNLGCPNPRLVKVSGQCCEEWVCDEDSIKDSLDDQDDLLGLDASEVELTRNNELIAIGKGSSLKRLPVFGTEPRVLFNPLHAHGQKCIVQTTSWSQCSKSCGTGISTRVTNDNPECRLVKETRICEVRPCGQPVYSSLKKGKKCSKTKKSPEPVRFTYAGCSSVKKYRPKYCGSCVDGRCCTPLQTRTVKMRFRCEDGEMFSKNVMMIQSCKCNYNCPHPNEASFRLYSLFNDIHKFRD
For B1, the “binding to macrophages” value (macrophages) was “binds to macrophages via yet another integrin, the αMβ2 integrin”, the “increase in [35S]-sulfate incorporation” value (Limb mesenchymal cells [1]; 0.3 μg/ml) was 1.5 fold and the “increase in [35S]-sulfate incorporation” value (Limb mesenchymal cells [1]; 5 μg/ml (120 nM)) was 3.5 fold. For the same molecule, the “cartilage formation” value (Limb mesenchymal cells [1]; 10 μg/ml) was “formed a more massive mound of cartilage”, the “increase in normalized sulfate incorporation over control” value (Limb mesenchymal cells [1]; sulfate/cell number ratio) was “approximately 2 fold” and the “ability to mediate cell attachment after treatment” value ([2]; 10 mM dithiothreitol (DTT), 16 hours) was “did not affect the ability of Cyr61 to mediate cell attachment”. The activity after heating ([2]; 75° C. for 5 minutes) was “inactivated”, the activity after protease ([2]; extensive digestion with chymotrypsin) was “inactivated” and the activity after acid ([2]; incubation in 100 mM HCl) was “inactivated”. For the same molecule, the “adhesion of BASM cells” value [3] was “induced adhesion of BASM cells”, the “attachment morphology of limb mesenchymal cells” value (Limb mesenchymal cells [4]) was “adhered as clusters of rounded cells” and the “HUVE cell attachment, A650” value (HUVE cells; coating 1 μg/ml) was 0.1 A650. The “HUVE cell attachment, A650” value (HUVE cells; coating 30 μg/ml) was 0.8 A650, the “time after addition at which VEGF-A mRNA is induced” value [5] was no more than 6 h and the “time after addition at which VEGF-C mRNA induction is clearly evident” value [5] was 12 h. For the same molecule, the “expression of angiogenic molecules” value ([5]; soluble Cyr61, 24 hours) was “induction of the angiogenic molecules VEGF1 and VEGF3”, the “expression of inflammation-related cytokines” value ([5]; soluble Cyr61, 24 hours) was “induction of the inflammation-related cytokines IL-1 and IL-6” and the “expression of matrix degrading enzymes” value ([5]; soluble Cyr61, 24 hours) was “upregulation of matrix degrading enzymes including MMP1, MMP3, and uPA”. For the same molecule, the “expression of matrix protein genes” value ([5]; soluble Cyr61, 24 hours) was “downregulation of matrix protein genes such as the type I collagen chain gene”.
